Results: patent US20180194839A1 (Novartis, published 2018)
Changes are numbered by the printed parent chain. Names may count otherwise.

T1: recombinant human IL-17A (SEQ ID NO: 76) (human, UniProt Q16552 24-155, limits assumed)
T1 sequence: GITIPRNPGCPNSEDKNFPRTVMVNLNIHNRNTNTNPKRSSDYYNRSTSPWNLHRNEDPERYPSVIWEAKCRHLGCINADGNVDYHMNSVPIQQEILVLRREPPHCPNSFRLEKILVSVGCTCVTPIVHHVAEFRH

T2: recombinant human IL-17A/F heterodimer (human, UniProt Q16552 24-155; Q96PD4 31-163, limits assumed)
T2 sequence (looked up) 1: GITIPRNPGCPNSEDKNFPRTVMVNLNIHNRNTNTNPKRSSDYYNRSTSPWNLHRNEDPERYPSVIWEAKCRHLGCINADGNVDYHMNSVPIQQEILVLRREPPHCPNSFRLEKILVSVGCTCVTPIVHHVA
T2 sequence (looked up) 2: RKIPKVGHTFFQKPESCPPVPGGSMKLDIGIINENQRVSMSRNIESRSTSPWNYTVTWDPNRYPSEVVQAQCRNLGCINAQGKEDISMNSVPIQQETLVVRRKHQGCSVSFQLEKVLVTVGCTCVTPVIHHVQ

T3: recombinant human IL-17F (SEQ ID NO: 77) (human, UniProt Q96PD4 31-163)
T3 sequence: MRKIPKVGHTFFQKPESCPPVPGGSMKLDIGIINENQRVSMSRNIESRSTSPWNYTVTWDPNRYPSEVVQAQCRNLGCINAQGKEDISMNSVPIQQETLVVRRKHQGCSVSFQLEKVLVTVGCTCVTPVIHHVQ

T4: recombinant mouse IL-17A (SEQ ID NO: 83) (mouse, UniProt Q62386 26-158)
T4 sequence: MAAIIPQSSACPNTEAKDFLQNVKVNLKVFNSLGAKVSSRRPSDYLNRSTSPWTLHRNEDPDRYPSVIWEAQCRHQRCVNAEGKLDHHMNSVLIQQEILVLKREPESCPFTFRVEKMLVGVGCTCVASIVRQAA

T5: recombinant human IL-12 (R&D Systems Cat#219-IL-005/CF) (human, UniProt P29459 23-219; P29460 23-328)
T5 construct: also called huIL-12
T5 sequence (looked up) 1: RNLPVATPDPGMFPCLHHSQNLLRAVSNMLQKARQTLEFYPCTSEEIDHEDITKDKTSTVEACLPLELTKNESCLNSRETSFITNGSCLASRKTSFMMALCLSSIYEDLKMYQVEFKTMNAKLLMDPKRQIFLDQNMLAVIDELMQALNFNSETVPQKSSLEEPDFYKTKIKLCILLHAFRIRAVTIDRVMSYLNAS
T5 sequence (looked up) 2: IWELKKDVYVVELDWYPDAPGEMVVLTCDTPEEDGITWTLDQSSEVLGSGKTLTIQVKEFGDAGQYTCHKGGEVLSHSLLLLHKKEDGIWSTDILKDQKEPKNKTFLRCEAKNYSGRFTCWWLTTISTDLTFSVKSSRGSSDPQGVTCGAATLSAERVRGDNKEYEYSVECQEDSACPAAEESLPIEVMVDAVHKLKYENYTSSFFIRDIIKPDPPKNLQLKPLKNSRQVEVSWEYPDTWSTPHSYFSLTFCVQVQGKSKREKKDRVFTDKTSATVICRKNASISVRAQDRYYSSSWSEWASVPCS

T6: recombinant human IL-23 (R&D Systems Cat#1290-IL-010/CF) (human, UniProt Q9NPF7 20-189; P29460 23-328)
T6 construct: also called huIL-23
T6 sequence (looked up) 1: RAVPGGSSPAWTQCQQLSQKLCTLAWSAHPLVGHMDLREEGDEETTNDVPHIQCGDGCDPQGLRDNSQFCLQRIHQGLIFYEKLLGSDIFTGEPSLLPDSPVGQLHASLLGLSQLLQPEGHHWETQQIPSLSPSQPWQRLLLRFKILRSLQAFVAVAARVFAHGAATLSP
T6 sequence (looked up) 2: T5 sequence (looked up) 2

T7: recombinant human IFNγ (Roche) (human, UniProt P01579 24-166, limits assumed)
T7 construct: also called huIFNγ
T7 sequence (looked up): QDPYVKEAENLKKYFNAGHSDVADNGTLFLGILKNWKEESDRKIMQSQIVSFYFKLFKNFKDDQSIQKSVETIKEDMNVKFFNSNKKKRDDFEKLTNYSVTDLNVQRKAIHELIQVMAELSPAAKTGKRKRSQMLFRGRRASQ

T8: human IL-17A (construct not stated) (human, UniProt Q16552 24-155, limits assumed)
T8 construct: also called huIL-17A; human IL-17A biotin
T8 sequence: T1 sequence

B1: XAB4 (antibody, human IgG1, kappa, V domains shown)
VH: EVQLVESGGDLVQPGGSLRLSCAASGFTFSSYWMSWVRQAPGKGLEWVANIKQDGSEKYYVDSVKGRFTISRDNAKNSLYLQMNSLRAEDTAVYYCARDRGSLYYWGQGTLVTVSS
VL: AIQLTQSPSSLSASVGDRVTITCRPSQGINWELAWYQQKPGKAPKLLIYDASSLEQGVPSRFSGSGSGTDFTLTISSLQPEDFATYYCQQFNSYPLTFGGGTKVEIKR
notes: also called MB435 N56Q
B2: XAB1 (antibody, human IgG1, kappa, V domains shown)
VH: B1 VH
VL: B1 VL with N30I, W31S, E32A, Q56N
notes: human IgG1/kappa monoclonal antibody; also called parental XAB1; XAB1 IgG

Experiments:
[1] = molecular target: T1, recombinant human IL-17A (SEQ ID NO: 76); assay: cell-based or functional assay
[2] = molecular target: T2, recombinant human IL-17A/F heterodimer; assay: cell-based or functional assay
[3] = molecular target: T3, recombinant human IL-17F (SEQ ID NO: 77); assay: cell-based or functional assay
[4] = molecular target: T4, recombinant mouse IL-17A (SEQ ID NO: 83); assay: cell-based or functional assay
[5] = molecular target: T4, recombinant mouse IL-17A (SEQ ID NO: 83); assay: ELISA, coated antigen, Ab 1 µg/ml
[6] = molecular target: T1, recombinant human IL-17A (SEQ ID NO: 76); assay: ELISA, coated cytokine, Ab 10 µg/ml;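 also: antibodies incubated 3 h at room temperature on the coated wells, binding detected with alkaline phosphatase-conjugated anti-IgG secondary antibodies matching the species of each test antibody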
[7] = molecular target: T2, recombinant human IL-17A/F heterodimer; assay: ELISA, coated cytokine, Ab 10 µg/ml;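 also: antibodies incubated 3 h at room temperature on the coated wells, binding detected with alkaline phosphatase-conjugated anti-IgG secondary antibodies matching the species of each test antibody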
[8] = molecular target: T9, recombinant human IL-1β (Novartis) (human, UniProt P01584 117-269); assay: ELISA, coated cytokine, Ab 10 µg/ml;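 also: antibodies incubated 3 h at room temperature on the coated wells, binding detected with alkaline phosphatase-conjugated anti-IgG secondary antibodies matching the species of each test antibody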
T9 construct: also called huIL1β

[9] = molecular target: T5, recombinant human IL-12 (R&D Systems …); assay: ELISA, coated cytokine, Ab 10 µg/ml;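 also: antibodies incubated 3 h at room temperature on the coated wells, binding detected with alkaline phosphatase-conjugated anti-IgG secondary antibodies matching the species of each test antibody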
[10] = molecular target: T10, recombinant human IL-13 (Novartis) (human, UniProt P35225 35-146, limits assumed); assay: ELISA, coated cytokine, Ab 10 µg/ml
T10 construct: also called huIL-13

[11] = molecular target: T6, recombinant human IL-23 (R&D Systems …); assay: ELISA, coated cytokine, Ab 10 µg/ml
[12] = molecular target: T7, recombinant human IFNγ (Roche); assay: ELISA, coated cytokine, Ab 10 µg/ml
[13] = molecular target: T11, recombinant human EGF (Sigma Cat#E9644) (human, UniProt P01133 971-1023); assay: ELISA, coated cytokine, Ab 10 µg/ml
T11 construct: also called huEGF

[14] = molecular target: T8, human IL-17A (construct not stated); assay: competition ELISA: biotinylated huIL-17A pre-incubated with antibody, binding to coated huIL-17RA

T11 sequence (P01133 971-1023 limits assumed): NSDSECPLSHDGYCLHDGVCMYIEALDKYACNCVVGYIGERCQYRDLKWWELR
T10 sequence (P35225 35-146 limits assumed): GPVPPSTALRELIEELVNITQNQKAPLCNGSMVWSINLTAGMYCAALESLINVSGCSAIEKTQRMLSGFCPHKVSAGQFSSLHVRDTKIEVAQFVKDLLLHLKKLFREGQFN

| Binder | IC50, huIL-6 secretion by BJ cells; stimulus rhuIL-17A (1 nM) [1] [nM] | IC50, huIL-6 secretion by BJ cells; stimulus rhuIL-17A/F (300 pM) + rhuTNF-α (6 pM) [2] [nM] | IC50, huIL-6 secretion by BJ cells; stimulus rhuIL-17A/F (3 nM) [2] [nM] | IC50, huIL-6 secretion by BJ cells; stimulus rhuIL-17F (10 nM) + rhuTNF-α (6 pM) [3] [µM] | IC50, huIL-6 secretion by BJ cells; stimulus rhuIL-17F (30 nM) [3] [nM] | IC50, KC secretion by CMT-93 cells; stimulus mIL-17A (0.15 nM) [4] [nM] | O.D. [5] [O.D.] | O.D. [6] [O.D.] | O.D. [7] [O.D.] | O.D. [8] [O.D.] | O.D. [9] [O.D.] | O.D. [10] [O.D.] | O.D. [11] [O.D.] | O.D. [12] [O.D.] | O.D. [13] [O.D.] | IC50 [14] [nM] | IC50, huIL-6 secretion by BJ cells; stimulus rhuIL-17A (30 pM) + rhuTNF-α (6 pM) [1] [nM] |
| --- | --- | --- | --- | --- | --- | --- | --- | --- | --- | --- | --- | --- | --- | --- | --- | --- | --- |
| B1 | 0.63 | 0.17 | 1.68 | > 3 | > 3000 | 7 | 1.58 | 3.18 | 3.1 | 0.015 | 0.009 | 0.019 | -0.022 | 0.048 | 0.126 | 0.321 |  |
| B2 |  | 3.83 |  | > 3 |  | 128 | 1.44 | 2.75 | 2.64 | -0.11 | -0.097 | 0.125 | 0.085 | 0.059 | 0.062 | 0.83 | 0.47 |
